In the nanobody polyreactivity screen of Harvey et al. (2022):

Assay: yeast display, Sf9 membrane polyspecificity reagent, FACS + sequencing; frameworks hold sequencing errors
Procedure, shortened: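 Genes from sorted yeast were amplified by colony PCR, read by MiSeq 2 × 250 sequencing and filtered on CDR length. These cells carried a synthetic nanobody library in Saccharomyces cerevisiae BJ5465 and were sorted by FACS into low and high (top ~1%) gates on anti-HA and streptavidin fluorescence. Polyreactivity is labelled according to the gate of origin.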

| Sequence | polyreactivity (PSR sort gate) |
| --- | --- |
| QVQLVESGGGLVQAGGSLRLSCASSGRTFFQYAMGWYRQAPGKERELVAAIRWSDSTYYADSVKGRFTISRDNAKNTVYLQMNSLKPEDTAVYYCAAPRVSQYSTKKYDYWGQGTQVTVSS | low polyreactivity |
| QVQLVESGGGLVQAGGSLRLSCAASGLIFWLNAMGWYRQAPGKERELVAAISWTDGTTYYADSVKGRFTISRDNAKNTVYLQMNSLIPEDTAVYYCAAEQVTIEDGVYFDFNSWGQGTQVTVSS | low polyreactivity |
| QVQLVESVVGLVQAGCSLRLSCDASGFIFYYYTMGWYRQATGKERELVAAISRSGGRTYYADSVKGLFTISRDYAKNTVYLQMNSMKPDDTAVYYCAADTPYQTPPQQYVEYDYWGQCTQVTVSS | high polyreactivity |
| QVQLVESGGGLVQAGGSLRLSCAASGFTFGYYAMGWYRQAPGKERELVAAITGSGGSTYYADSVKGRFTISRDNAKNTVYLQMNSLKPEDTAVYYCAADKAVYRGSPKNRSPYYYWGQGTQVTVSS | high polyreactivity |
| QVQLVESGGGLVQAGGSLRLSCAASGRIFNTYAMGWYRQAPGKERELVAAISWRGVSTYYADSVKGRFTISRDNAKNTVYLQMNSLKAEDTAVYYCAALPFWWGGYWGQGTQVTVSS | high polyreactivity |
| QVQLVESGGGLVQAGGSLRLSCAASGFTFVWYAMGWYRPAPGKERELVAAISRRGTRTYYADSVKGRFTISRDNAKNTVYLQMNSLKPEDTAVYYCAASNGYQAVTYDYWGQGTQVTVSS | high polyreactivity |
| QFQLVESGGGLVQAGGSLRLSCAASGITFRAYAMGWYRQAPGKERELVAAITGRFGRTYYADSVKGRFTISRDNENNSVYLQMNSLKPEDTAVYYCNAYLWRVTQTYDYWGQGTQVTVSS | high polyreactivity |
| QVQLVESGGGLVQAGGSLRLSCAASGSIFIRNAKGWYRQAPGKERELVAAISTIGGRTYYADSVKGRFTISRDNAKNTVYLQMNSLKPEDTAVYYCAAEQGTPSTNWYDYWGQGTQVTVSS | low polyreactivity |
| QVQLVESGGGLVQAGGSLRLSCAASGSIFTVYAMGWYRQAPGKERELVAVINYRGGNTYYADSVKGRFTISRDNAKNTVYLQMNSLKPEDTAVYYCATEVSWHWYQLSVPRMDYWGQGTQVTVSS | low polyreactivity |
| QVQLVESGGGLVQAGGSLRLSCAASGRTFSPNAMGWYRQAPGKERELVAAITRSDGRTYYADSVKGRFTISRDNAKNTVYLQMNSLKPEDTAVYYCAVDGYYPPAWYEYDYWGQGTQVTVSS | high polyreactivity |
| QVQLVDSGGGLVQAGGSLRLSCAASGIILYPYAMGWYRQAPGKERELVAAISWSGGSTYYADSVKGRFTISRDNAKNTVYLQMNSLKPEDTAVYYCAARPRRRYYGYDSWGQGTQVTVSS | high polyreactivity |
| QVQLVESGGGLVQAGGSLRLSCAASGLTFERNAMGWYRQAPGKERELVAAISSGGSTYYADSVKGRFTISRDNAKNTVYLQMNSLKPEDTAVYYCAVYDWNSYFYRSWWSGFYYWGQGTQVTVSS | low polyreactivity |
| QVQLVESGGGLVQAGGSLRLTCAASGRTLVPYVMGWYRQAPGKERELVASITSGGSTYYADSVKGRFTISRDNAKNTVYLQMNSLKPEDTAVYYCATRQSAERWGYYYWGQGTQVTVSS | low polyreactivity |
| QVQLVESGGGLVQAGGSLRLSCAASGRTFYAYTRGWYRQAPGKERELVAAISSSGTRTYYADSVKGRFTISRDNAKNTVYLQMNSLKPEDTAVYDCAKGTQRFRGLDHGYDYWGQGTQVTVSS | high polyreactivity |
| QVQLVESGGGLVQAGGRLRLSCAASGRTFANYARGGYRQAPGTERELVAAITSGGRTYYADSVKGRFTISRDNAKNTVYLQMNSLKPEDTPVYYCAAEITYLYDYWGQGTQVTVSS | high polyreactivity |
| QVQLVESGGGLVQAGGSLRLSCAASGLTFNKNAMGWYRQAPGKESEFVAAITRRGGSTYYADSVKGRFTISRDNAKNTVFLQMNSLKPEDTAVYYCAVYPASVNPYHYDYWGQGTQVTVSS | high polyreactivity |
| QVQLVESGGGLVQAGGSLRLSCAASGRIFGGYTMGWYRQAPGKEREFVAAITSSGGSTYYADSVKGRFTISRDNAKNTVYLQMYSLKPEETAVYYCAVDDYYYDYDYWGQGTQVTVSS | low polyreactivity |
| QDQLVESGGGLVQAGGSLRLSCAASGIIFYGYAMGWYRQAPGKERQLVAGISSGGSTYYADSVKGRFTISRDNAKNTVYLQMNSLNPEDTAVYYCNAEGGYSYESTDHYRYDYWGLGTQVTVSS | low polyreactivity |
| QVQLVESGGGLVQAGGSLRLSCAASGRIFLTYAMGWYRPAPGKERELVAAIRSRSGTTYYADSVKGRFTISRDNAKNTVYLQMNRLKPEDTAVFYCAAGGKSRSYYWGQGTQVTVSS | high polyreactivity |
| QVQLVESGGGLVQAGGSLRLSCAASGFTFSRNVLGWYRQAPGKERELIAAITTSYGGTYYADSVKGRFTISRDNAKNTVYLQMNSLKPEDTAVYYCATRYYPNTSYEYYYWGQGTQLTVSS | low polyreactivity |
| QVQLVESGGGLVQAGGSLRLSCAASGRTFGKYAMGWYTQAPGKEREFVAAISWSGATTRYADSVKGRFTISRDNAKNTVYLQMNSLKPEDTAVYYCAATYYYVYGYRGDYWGQGTQVTVSS | high polyreactivity |
| QVQLVESGGGLVQAGGSLRLSCAASGFTIWWYAMGWSRRAPGKERELVATITSGGRTNYAYSVKGRFTISRDNAKNTVYLQMTSLKPEDTAVYYCATRQLSKVKDMDYWGQGTQVTVSS | high polyreactivity |

| Sequence | polyreactivity (PSR sort gate) |
| --- | --- |
| QVQLVESGGGLVQAGGSLRVSCAASGRIFVQYDMGWYRQAPGKERELVAAINDSGDITYYADSVKGRFTISRDNAKNTVYLQMTSLKPEDTAVYSCAASAAYYGFYKSVTYDYWGQGTQVSVSS | low polyreactivity |
| QVQLVESGGGLVQAGGSLRLSCAASGRIFRYYAMGWYRQAPGKERELVAAISGGGGTYYADSVKGRFTISRDNATNTVYLQMNSLKPEDTAVYYCNAETYDYWFGYDYWGQGTQVTVSS | high polyreactivity |
| QVQLVESVGGLVQAGGSLRLSCAASGITFTVYAMGWYRQAPGKERELVAAISSSGSTTYADSVKGRFTISRDNAKNTVYLQMNSLKPEDTAVYYCAAYSDYYLDQWYGYWGQGTQVTVSS | low polyreactivity |
| QVQLVESGGGLVQAGGSLRLSCAASGIIFARYAMGWYRQAPGKERELVAAISNRGTSTYYADSVKGRFTISRDNAKNTVYLQMNSLKPEDTAVYYCKRVKDGYWGQGTQVTVSS | high polyreactivity |
| QVQLVESGGGLVQAGGSLRLSCAASGFIFYRYVMGWYRQAPGKERELVAAITWSGGSTYYADSVKGRFTISRDNAKNTVYLQMNSLKPEDTAVYYCAAEWWLPSFGMDYWGQGTQVTVSS | low polyreactivity |
| QVQLVDSGGGLVQAGGSLRLSCAASGRTSIWNAMGWYRQAPGKERELVASISWSGGSTYYADSVKGRFTISRDNAKNTVYLQMNSLKPEDTAVYYCAKTGYFLVFNEHLHKKRYDSWGQGTQVTVSS | low polyreactivity |
| QVQLVESGGGLVQAGGSLRLSCAASGFIFHKYVMGWYRQAPGKERELVAAISRSGASTYYADSVKGRFTISRDNAKNTVYFQMNSLKPEDTAVYYCAARYRRRVIATRDYWGQGTQVTVSS | high polyreactivity |
| QVQLVESGGGLVQAGGSLRLSCAASGFILNQYAMGWYRQAPGKERELVAAISNGGSTNYADSVKGRFTISRDNAKNTVYLQMNSLKPEDTAVYYCAKDQSLTYSSVWGYDYWGQGTQVTVSS | low polyreactivity |
| QVKLVDSGGGLVQAGGSLRLSCAASGFIFYSYDMGWYRQAPGKERELVATITSGDDTYYADSVKGRFTISRDNAKNTVYLQMNSQKPEDTAVGYWGQGTQVTVSS | low polyreactivity |
| QVQLVESGGGLVQAGGSLRLSCAASGSIFKYYAMGWYRQAPGKERELVAAISSTGGSTYYAHSLKGRFTISRDNANYTVYLQMNSLKTEDTAVYYCNTTYIWKNYDYWGQGTQVTVSS | high polyreactivity |
| QVQLVESGGGLVQAGGSLRLSCAASGLTFYQYTMGWYRQAPGKERELVAAISRRGGSTYYADSVKGRFTISRDNAKNTVYLQMNSLKPEDTAVYYCAARALRYSRDFDYWGQGTQVTVSS | high polyreactivity |
| QVQLVESGGGLGHAGGSLRLSCAASGGIYDYYAMGWNRQAPGKERELVTAITRSGSSTFYADSVKGRFTISRDNAKNTVYLQMKSVKPEDTAVYYCAAPYYYFAVYYGYIFEYDYWGQGTQVTVSS | low polyreactivity |
| QVQLVESGGGLVQAGGSLRLSCAASGFTFYYYAMGWYRQAPGKERELVAGINSDGNTYYADSVKGRFTISRDNAKNTVYLQMNSLKPEDTAVYYCAARKLWPKNFVRHDYWGQGTQVTVSS | low polyreactivity |
| QDQLVDSGGGLVQAGGSLRLSCAASGSNFCGKAMGWYRQAPGKEREFVAAITRSGGSTYYADSVKGRFTISRDNAKNTVYLQMNSLKPEDTAVYYCNRDYAFKHHRAGYGYWGQGTLVTVSS | low polyreactivity |
| QVQLVESGGGLVQAGGSLRLSCAASAFIFGRYVMGWYIQAPGKEREVVAAISWSGGRTYYADSVKGRFTISRDNAKNTVYLQMNSLKPEDTAVYYCAAESSYPSYDGYYWGQGTQVTVSS | high polyreactivity |
| QVQLVESGGGLVQAGGSLRLSCAASGIIFAYYAMGWYRQAPGKETELVAAINRSGGTTYYADSVKGRFTISRDNAKNTVYLQMNSLKPEDTAVYYCNALTTWRYRYDYWGQGTQVTVSS | high polyreactivity |
| QVQLVESGGGLVQAGGSLRLSCAASGSIFPRYFMGWYRQAPGKERELVAAISQSGGSTYYADSVKGRFTISRDNAKNTVYLQMNSLKPEDTAVYYCAAEVRGWRVDYYYWGQGTQVTVSS | high polyreactivity |
| QVQLVESGGGLVQAGGSLRLSCAASGLTFRYYAMGGYRQAPGKERELDAAITSSGTSTYYADSVKGRFTISRDNAKNTVSLQMNSLKPEDTAVYYCAARYSGGTWSGYNYWGQGTQVTVSS | high polyreactivity |
| QVQLVESGGGVVQAGGSLRLSCAASGLIFRRYAMGWYRQAPGIERELVAAISGNGGSTYYADSVKGRFTISRDKAKNTVYVQMNCLKPEDTAVYYCAARSLGIYNYWGQGTQVTVSS | high polyreactivity |
| QVQLVESGGGLVQAGGSLRLSCAASGITFYRYAMGWYRQAPGKERELVAAINSSGGNTYYADSVKGRFTISRDNAKNTVYLQMNSLKPEDTAVYYCAADRVSWVKHYYWGQGTQVTVSS | high polyreactivity |
| QVQHVESGGGLVQAGGSLRLTCAASGYIFYYNAMGWYRHAPGKEREMVAAINYSGTSTYYADSVKGRFTISRDNAKNTVYLQMNSLKPEDTAVFYCAKVPHYPLAGRLAILDYWGQGSQVTVSS | high polyreactivity |
